Substrate: NC(=O)[C@@H]1CCCN1C(=O)[C@H](Cc1cnc[nH]1)NC(=O)[C@@H]1CCC(=O)N1
Experiment: RP-HPLC cleavage assay with purified rhPOP, Michaelis-Menten fit (Km)
Type: biochemical, Homo sapiens
Details: occupies the S3-S1' sub-pockets

B1: Prolyl Oligopeptidase (POP) (Homo sapiens) (protein)
chain: MLSLQYPDVYRDETAVQDYHGHKICDPYAWLEDPDSEQTKAFVEAQNKITVPFLEQCPIRGLYKERMTELYDYPKYSCHFKKGKRYFYFYNTGLQNQRVLYVQDSLEGEARVFLDPNILSDDGTVALRGYAFSEDGEYFAYGLSASGSDWVTIKFMKVDGAKELPDVLERVKFSCMAWTHDGKGMFYNSYPQQDGKSDGTETSTNLHQKLYYHVLGTDQSEDILCAEFPDEPKWMGGAELSDDGRYVLLSIREGCDPVNRLWYCDLQQESSGIAGILKWVKLIDNFEGEYDYVTNEGTVFTFKTNRQSPNYRVINIDFRDPEESKWKVLVPEHEKDVLEWIACVRSNFLVLCYLHDVKNILQLHDLTTGALLKTFPLDVGSIVGYSGQKKDTEIFYQFTSFLSPGIIYHCDLTKEELEPRVFREVTVKGIDASDYQTVQIFYPSKDGTKIPMFIVHKKGIKLDGSHPAFLYGYGGFNISITPNYSVSRLIFVRHMGGILAVANIRGGGEYGETWHKGGILANKQNCFDDFQCAAEYLIKEGYTSPKRLTINGGSNGGLLVAACANQRPDLFGCVIAQVGVMDMLKFHKYTIGHAWTTDYGCSDSKQHFEWLVKYSPLHNVKLPEADDIQYPSMLLLTADHDDRVVPLHSLKFIATLQYIVGRSRKQSNPLLIHVDTKAGHGAGKPTAKVIEEVSDMFAFIARCLNVDWIP
notes: recombinant human POP (rhPOP), GST moiety removed
  Km: 690 µM

— article PMC7112232, “Computational design of substrate selective inhibition” (PLoS Computational Biology, 2020)
